Experimental data as given in patent US12337027B2, “Methods and compositions relating to lung repair” (THE CHILDREN'S MEDICAL CENTER CORPORATION, priority 2018, dated 2025).
Entries after “also recorded” stand apart in the source; their conditions may differ.

B1: sFlt1: soluble variant of the VEGF receptor encoded by the Flt1 gene (protein, listed as Homo sapiens)
chain: MVSYWDTGVLLCALLSCLLLTGSSSGSKLKDPELSLKGTQHIMQAGQTLHLQCRGEAAHKWSLPEMVSKESERLSITKSACGRNGKQFCSTLTLNTAQANHTGFYSCKYLAVPTSKKKETESAIYIFISDTGRPFVEMYSEIPEIIHMTEGRELVIPCRVTSPNITVTLKKFPLDTLIPDGKRIIWDSRKGFIISNATYKEIGLLTCEATVNGHLYKTNYLTHRQTNTIIDVQISTPRPVKLLRGHTLVLNCTATTPLNTRVQMTWSYPDEKNKRASVRRRIDQSNSHANIFYSVLTIDKMQNKDKGLYTCRVRSGPSFKSVNTSVHIYDKAFITVKHRKQQVLETVAGKRSYRLSMKVKAFPSPEVVWLKDGLPATEKSARYLTRGYSLIIKDVTEEDAGNYTILLSIKQSNVFKNLTATLIVNVKPQIYEKAVSSFPDPALYPLGSRQILTCTAYGIPQPTIKWFWHPCNHNHSEARCDFCSNNEESFILDADSNMGNRIESITQRMAIIEGKNKMASTLVVADSRISGIYICIASNKVGTVGRNISFYITDVPNGFHVNLEKMPTEGEDLKLSCTVNKFLYRDVTWILLRTVNNRTMHYSISKQKMAITKEHSITLNLTIMNVSLQDSGTYACRARNVYTGEEILQKKEITIRGEHCNKKAVFSRISKFKSTRNDCTTQSNVKH

Key:
[1] = system: C57B16 mice following left pneumonectomy; experiment: Compensatory lung growth after left pneumonectomy (lung volume by water displacement); format: in vivo; conditions: for lung growth: compensatory lung growth after pneumonectomy
Protocol: (§1) C57B16 mice were randomized to receive daily intraperitoneal injection of either saline or soluble fms-like tyrosine kinase 1 (sFlt1) at a dose of 20 mcg/kg following left pneumonectomy. On post-operative day 4, mice underwent pulmonary function studies and were subsequently euthanized for lung volume measurement. Lung volume was determined by water displacement method. […] This therapy can potentially improve lung growth and pulmonary functions in patients suffering from severe pulmonary hypoplasia.
(§2) sFlt1 was administered to mice according to the experimental design depicted in FIG. 6. […] The dose response to sFlt1 was investigated (FIG. 8) and, in mice, 20 mcg/kg sFlt1 was the optimal dosing regimen (FIG. 9).

mice = experiment: Exercise tolerance tests; format: in vivo
HIF-2α = HIF-2α levels after sFlt1 administration (incl. immunohistochemistry); format: in vivo, mice; conditions: FIG. 11, 12
Excerpt: FIG. 12 depicts immunohistochemical measurements of HIF-2α levels.

[2] = system: mice after 70% partial hepatectomy; experiment: Liver regeneration after 70% partial hepatectomy; format: in vivo; conditions: 10, 20, or 50 ug/kg daily intraperitoneal vs saline, POD 4
Protocol: Mice underwent 70% partial hepatectomy and were randomized to receive saline (control) or one of 3 doses of Flt1 (10, 20, or 50 ug/kg) via intraperitoneal injection. Treatment was performed daily and mice were euthanized on post-operative day (POD) 4 for organ harvest. Liver samples were weighed and normalized against body weight.

VEGF = VEGF levels after sFlt1 administration; format: in vivo, mice; conditions: FIG. 11
[3] = system: C57B16 mice following left pneumonectomy; experiment: Pulmonary function studies after left pneumonectomy; format: in vivo
Protocol: as §1, §2

liver and spleen = system: liver and spleen; design: species or system mice; conditions: mouse, in vivo
Protocol: LW/BW: liver weight/body weight, SW/BW: spleen weight/body weight.
as §1

[4] = sFlt1 20 mcg/kg daily intraperitoneal vs saline, post-operative day 4

Molecule	effect of HIF-2α inhibition on sFlt1-induced lung growth ([1]; PT-2385 given with sFlt1, FIG. 15)	effect of HIF-2α inhibition on sFlt1 effect on exercise tolerance (mice; PT-2385 given with sFlt1, FIG. 16, 17)	lung growth [1]	lung growth ([1]; listed as soluble VEGF receptor)	optimal dosing regimen (dose response) ([1]; in mice, FIG. 9)	lung volume (LV/BW: lung volume/body weight) [1, 4]	levels of HIF-2α (HIF-2α)	liver weight normalized against body weight [2]	baseline activity in exercise tolerance tests (mice; FIG. 16)	levels of VEGF (VEGF)	inspiratory capacity (IC/BW) [3, 4]	pulmonary compliance [3, 4]	pulmonary elastance [3, 4]	pulmonary mechanics ([3]; sFlt1 at 20 mcg/kg, FIG. 10)	organ mass of liver (LW/BW: liver weight/body weight) (liver and spleen)	organ mass of spleen (SW/BW: spleen weight/body weight) (liver and spleen)
CS(=O)(=O)c1ccc(Oc2cc(F)cc(C#N)c2)c2c1[C@H](O)C(F)(F)C2 [PT-2385, reference compound]	blunt the effects of sFlt1	blunt the effects of sFlt1	–	–	–	–	–	–	–	–	–	–	–	–	–	–
B1	–	–	increases lung growth; also recorded: accelerated lung growth	accelerated compensatory lung growth	0.02 mg/kg	significantly higher lung volume; also recorded: increases lung volume	unexpectedly increases	no difference in liver weight	increased baseline activity	unexpectedly increases	significantly higher; also recorded: improve; also recorded: increases inspiratory capacity	improves	improves	improved pulmonary mechanics	does not change	does not change
